In the assay the target is VSG on Trypanosoma brucei brucei AnTat 1.1 parasites (Trypanosoma brucei brucei AnTat 1.1). The experiment in a line: cell-based or functional assay. The settings on record: scale: % of the parasites lysed at 10 μg/ml.
VSG on Trypanosoma brucei brucei AnTat 1.1 parasites (Trypanosoma brucei brucei AnTat 1.1), sequence (P06015 30-480): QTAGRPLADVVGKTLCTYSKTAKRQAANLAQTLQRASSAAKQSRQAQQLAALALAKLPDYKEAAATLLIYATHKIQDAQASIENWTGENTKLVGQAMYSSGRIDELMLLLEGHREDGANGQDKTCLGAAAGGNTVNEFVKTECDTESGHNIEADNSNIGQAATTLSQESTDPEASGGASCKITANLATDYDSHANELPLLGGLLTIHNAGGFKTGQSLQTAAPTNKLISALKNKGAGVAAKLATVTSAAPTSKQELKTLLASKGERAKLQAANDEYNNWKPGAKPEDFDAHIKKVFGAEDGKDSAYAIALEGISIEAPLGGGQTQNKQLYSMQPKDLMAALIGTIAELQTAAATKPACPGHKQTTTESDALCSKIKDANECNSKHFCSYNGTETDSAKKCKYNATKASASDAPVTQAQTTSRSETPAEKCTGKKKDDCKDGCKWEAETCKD

Take “NbAn33-Tr-apoL-I (from UniProt O14791 28-342)”: the trypanolytic activity turned out to be 100.

The record behind these values is WO2007039645A1.
